Drawing on publication PMC12412624, “Engineered Cas12j‐8 is a Versatile Platform for Multiplexed Genome Modulation in Mammalian Cells”, this text covers binding signal for one sequence.

Where a chain is given by its changes, count along the chain named.

In data set [1] the test system is T1, dCas12j-8 E609R E609R;D369A;E567A;D658A (bacteriophage (metagenome)).
T1 sequence: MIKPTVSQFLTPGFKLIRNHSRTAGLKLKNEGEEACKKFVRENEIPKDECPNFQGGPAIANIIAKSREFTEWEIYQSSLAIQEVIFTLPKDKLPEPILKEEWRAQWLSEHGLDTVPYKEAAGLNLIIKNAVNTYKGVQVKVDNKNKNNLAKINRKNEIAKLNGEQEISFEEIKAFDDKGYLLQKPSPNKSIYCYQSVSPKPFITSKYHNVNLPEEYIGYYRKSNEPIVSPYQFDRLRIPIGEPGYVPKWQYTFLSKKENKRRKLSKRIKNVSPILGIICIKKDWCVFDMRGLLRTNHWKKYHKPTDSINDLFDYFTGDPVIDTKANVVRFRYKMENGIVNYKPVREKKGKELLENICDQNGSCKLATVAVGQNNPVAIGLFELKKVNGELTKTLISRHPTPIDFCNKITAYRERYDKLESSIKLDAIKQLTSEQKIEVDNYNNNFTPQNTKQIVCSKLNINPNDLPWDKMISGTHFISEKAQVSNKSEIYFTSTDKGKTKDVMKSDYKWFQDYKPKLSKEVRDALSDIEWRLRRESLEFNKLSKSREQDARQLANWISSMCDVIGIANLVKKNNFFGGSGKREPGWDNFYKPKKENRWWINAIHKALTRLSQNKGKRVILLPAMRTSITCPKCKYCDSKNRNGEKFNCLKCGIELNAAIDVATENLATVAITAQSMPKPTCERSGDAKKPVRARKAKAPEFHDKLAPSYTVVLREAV
Conditions: HEK293T cells; panel 1c (compare within a panel only); scale: mean GFP / mean GFP of wild type, printed, no background subtraction.

Data set [2] has as its system T2, dCas12j-8 E258R+D495R+D527R E258R;D495R;D527R;D369A;E567A;D658A (bacteriophage (metagenome)).
T2 sequence: T1 sequence with E258R, D495R, D527R, R609E
The following applies: HEK293T cells; panel 1e (compare within a panel only); scale: mean GFP / mean GFP of wild type, printed, no background subtraction.

Data set [3] deals with T3, dCas12j-8 E258R+D523R E258R;D523R;D369A;E567A;D658A (bacteriophage (metagenome)).
T3 sequence: T1 sequence with E258R, D523R, R609E
Conditions: HEK293T cells; panel 1d (compare within a panel only); scale: mean GFP / mean GFP of wild type, printed, no background subtraction.

Regarding “CUUUCAAGACUAAUAGAUUGCUCCUUACGAGGAGACACUCCCUAUCAGUGAUAGAG / TTNACTCCCTATCAGTGATAGAG / CTCTATCACTGATAGGGAGTNAA [TetO]”, the binding signal was determined as 0.336 in data set [1], 3.63 in data set [2] and 2.67 in data set [3].
